Assay results as given in IntAct's records for PubMed 19407143.

B1: Protein phosphatase 2C 56 (Arabidopsis thaliana (Mouse-ear cress)), P49597 (parent)
chain: MEEVSPAIAGPFRPFSETQMDFTGIRLGKGYCNNQYSNQDSENGDLMVSLPETSSCSVSGSHGSESRKVLISRINSPNLNMKESAAADIVVVDISAGDEINGSDITSEKKMISRTESRSLFEFKSVPLYGFTSICGRRPEMEDAVSTIPRFLQSSSGSMLDGRFDPQSAAHFFGVYDGHGGSQVANYCRERMHLALAEEIAKEKPMLCDGDTWLEKWKKALFNSFLRVDSEIESVAPETVGSTSVVAVVFPSHIFVANCGDSRAVLCRGKTALPLSVDHKPDREDEAARIEAAGGKVIQWNGARVFGVLAMSRSIGDRYLKPSIIPDPEVTAVKRVKEDDCLILASDGVWDVMTDEEACEMARKRILLWHKKNAVAGDASLLADERRKEGKDPAAMSAAEYLSKLAIQRGSKDNISVVVVDLKPRRKLKSKPLN
partner: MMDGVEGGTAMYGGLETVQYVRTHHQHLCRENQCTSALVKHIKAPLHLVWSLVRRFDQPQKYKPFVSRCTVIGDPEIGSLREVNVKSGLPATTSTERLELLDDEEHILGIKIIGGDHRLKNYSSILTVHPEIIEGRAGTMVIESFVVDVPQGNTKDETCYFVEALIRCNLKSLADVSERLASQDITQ
B2: Protein phosphatase 2C 77 (Arabidopsis thaliana (Mouse-ear cress)), O04719 (parent)
chain: MDEVSPAVAVPFRPFTDPHAGLRGYCNGESRVTLPESSCSGDGAMKDSSFEINTRQDSLTSSSSAMAGVDISAGDEINGSDEFDPRSMNQSEKKVLSRTESRSLFEFKCVPLYGVTSICGRRPEMEDSVSTIPRFLQVSSSSLLDGRVTNGFNPHLSAHFFGVYDGHGGSQVANYCRERMHLALTEEIVKEKPEFCDGDTWQEKWKKALFNSFMRVDSEIETVAHAPETVGSTSVVAVVFPTHIFVANCGDSRAVLCRGKTPLALSVDHKPDRDDEAARIEAAGGKVIRWNGARVFGVLAMSRSIGDRYLKPSVIPDPEVTSVRRVKEDDCLILASDGLWDVMTNEEVCDLARKRILLWHKKNAMAGEALLPAEKRGEGKDPAAMSAAEYLSKMALQKGSKDNISVVVVDLKGIRKFKSKSLN
partner: B1 partner

Variants of: B1
Details: with pyl9_arath PYL9, Q84MC7

Variant	effect of a mutation on the interaction
MEEVSPAIAGPFRPFSETQMDFTGIRLGKGYCNNQYSNQDSENGDLMVSLPETSSCSVSGSHGSESRKVLISRINSPNLNMKESAAADIVVVDISAGDEINGSDITSEKKMISRTESRSLFEFKSVPLYGFTSICGRRPEMEDAVSTIPRFLQSSSGSMLDGRFDPQSAAHFFGVYDGHDGSQVANYCRERMHLALAEEIAKEKPMLCDGDTWLEKWKKALFNSFLRVDSEIESVAPETVGSTSVVAVVFPSHIFVANCGDSRAVLCRGKTALPLSVDHKPDREDEAARIEAAGGKVIQWNGARVFGVLAMSRSIGDRYLKPSIIPDPEVTAVKRVKEDDCLILASDGVWDVMTDEEACEMARKRILLWHKKNAVAGDASLLADERRKEGKDPAAMSAAEYLSKLAIQRGSKDNISVVVVDLKPRRKLKSKPLN [G180D]	decreasing interaction

Variants of: B2
Details: with pyl9_arath PYL9, Q84MC7

Variant	effect of a mutation on the interaction
MDEVSPAVAVPFRPFTDPHAGLRGYCNGESRVTLPESSCSGDGAMKDSSFEINTRQDSLTSSSSAMAGVDISAGDEINGSDEFDPRSMNQSEKKVLSRTESRSLFEFKCVPLYGVTSICGRRPEMEDSVSTIPRFLQVSSSSLLDGRVTNGFNPHLSAHFFGVYDGHDGSQVANYCRERMHLALTEEIVKEKPEFCDGDTWQEKWKKALFNSFMRVDSEIETVAHAPETVGSTSVVAVVFPTHIFVANCGDSRAVLCRGKTPLALSVDHKPDRDDEAARIEAAGGKVIRWNGARVFGVLAMSRSIGDRYLKPSVIPDPEVTSVRRVKEDDCLILASDGLWDVMTNEEVCDLARKRILLWHKKNAMAGEALLPAEKRGEGKDPAAMSAAEYLSKMALQKGSKDNISVVVVDLKGIRKFKSKSLN [G168D]	disrupting interaction
